Sequences and labels used below:
B1: CACACA_negctrl_site620 (dsDNA)
DNA 1: TTTTTTTACTTAATAGTTCAACATATATCTCAATGT
DNA 2: ACATTGAGATATATGTTGAACTATTAAGTAAAAAAA
B2: CACACA_negctrl_site173 (dsDNA)
DNA 1: TTTTATATATATATATATATATATATATATGTATAT
DNA 2: ATATACATATATATATATATATATATATATATAAAA
B3: CACACA_negctrl_site1603 (dsDNA)
DNA 1: TGATTTATCTATATTTTATAAGTTATTTATTTTTTT
DNA 2: AAAAAAATAAATAACTTATAAAATATAGATAAATCA
B4: CACACA_negctrl_site1558 (dsDNA)
DNA 1: TCTTAAATATATAAATTGAAAAATATAAAAGTAATA
DNA 2: TATTACTTTTATATTTTTCAATTTATATATTTAAGA
B5: CACACA_negctrl_site1491 (dsDNA)
DNA 1: GTAGCCTTTCTTTATAAAGGCAAACAAACAAAAAAT
DNA 2: ATTTTTTGTTTGTTTGCCTTTATAAAGAAAGGCTAC
B6: CACACA_negctrl_site583 (dsDNA)
DNA 1: AAAAAAAAAAAAAAAAAAAAAAAAATATATAATTTA
DNA 2: TAAATTATATATTTTTTTTTTTTTTTTTTTTTTTTT
B7: CACACA_negctrl_site793 (dsDNA)
DNA 1: TCCTATAATTTTTTAATCAAAATATTTTATCCTTTG
DNA 2: CAAAGGATAAAATATTTTGATTAAAAAATTATAGGA
B8: CACACA_negctrl_site1423 (dsDNA)
DNA 1: TTTTTATAACTATATTATATAACTTTTGTACGAACT
DNA 2: AGTTCGTACAAAAGTTATATAATATAGTTATAAAAA
B9: CACACA_negctrl_site62 (dsDNA)
DNA 1: TATATGTTAATTTTTTTTTTTTTTTTTTTTTTTATA
DNA 2: TATAAAAAAAAAAAAAAAAAAAAAAATTAACATATA
B10: CACACA_negctrl_site674 (dsDNA)
DNA 1: TAAAATGATAAATGAATGTGATCATTTTATAAAATA
DNA 2: TATTTTATAAAATGATCACATTCATTTATCATTTTA
B11: CACACA_negctrl_site1084 (dsDNA)
DNA 1: TTTTATTGATTATTCATAAATATGCTATTCATCTAA
DNA 2: TTAGATGAATAGCATATTTATGAATAATCAATAAAA
B12: CACACA_negctrl_site730 (dsDNA)
DNA 1: AGATGATATATTATATATCCTTTTAATAAATGTAAT
DNA 2: ATTACATTTATTAAAAGGATATATAATATATCATCT
B13: CACACA_negctrl_site1015 (dsDNA)
DNA 1: TATAAATAAAGACTTTTTTCTAACTTTTTTTTGTAT
DNA 2: ATACAAAAAAAAGTTAGAAAAAAGTCTTTATTTATA
B14: CACACA_negctrl_site1391 (dsDNA)
DNA 1: ATTTTTTTTTTTTTTTTTTTTTTTTTTTGATTTGTG
DNA 2: CACAAATCAAAAAAAAAAAAAAAAAAAAAAAAAAAT
B15: CACACA_negctrl_site77 (dsDNA)
DNA 1: TCTTTATATCATCTTTCTAAATATATATATATATAA
DNA 2: TTATATATATATATATTTAGAAAGATGATATAAAGA
B16: CACACA_negctrl_site1765 (dsDNA)
DNA 1: TACTTTATATTATATATATATATATATATATATATA
DNA 2: TATATATATATATATATATATATATAATATAAAGTA
B17: CACACA_negctrl_site1408 (dsDNA)
DNA 1: ATTTATTTTAATTTTTTTTTTTCTCTTTTGGATCTA
DNA 2: TAGATCCAAAAGAGAAAAAAAAAAATTAAAATAAAT
B18: CACACA_negctrl_site810 (dsDNA)
DNA 1: AGAAAGGAGGAAATAAAAGGACTTCTTTTTTTATAT
DNA 2: ATATAAAAAAAGAAGTCCTTTTATTTCCTCCTTTCT
B19: CACACA_negctrl_site1311 (dsDNA)
DNA 1: TTACATTTTTGAAATAGATACATACACGTGTATGTA
DNA 2: TACATACACGTGTATGTATCTATTTCAAAAATGTAA
B20: CACACA_negctrl_site637 (dsDNA)
DNA 1: GTGTAAAGGTATTATTGTATTATTCAAAATAAAAAA
DNA 2: TTTTTTATTTTGAATAATACAATAATACCTTTACAC
B21: CACACA_negctrl_site1083 (dsDNA)
DNA 1: ATGAAAAAAAAAAAAAAAAAAAAAAAAAAAAAAATA
DNA 2: TATTTTTTTTTTTTTTTTTTTTTTTTTTTTTTTCAT
B22: CACACA_negctrl_site1241 (dsDNA)
DNA 1: ATTTTTTTTTTTTTTTTTTTTTTGTTTATACAAAAT
DNA 2: ATTTTGTATAAACAAAAAAAAAAAAAAAAAAAAAAT
B23: CACACA_negctrl_site825 (dsDNA)
DNA 1: TAAGTTCACAAAAAAAAAAAAAAATAAAGAAATAAA
DNA 2: TTTATTTCTTTATTTTTTTTTTTTTTTGTGAACTTA
B24: CACACA_negctrl_site214 (dsDNA)
DNA 1: TTTTTATTTTTATACATATAATATATTATGATTAAA
DNA 2: TTTAATCATAATATATTATATGTATAAAAATAAAAA
B25: CACACA_negctrl_site1574 (dsDNA)
DNA 1: TTTTTTAAAAGAAAATAAAAAATAAGCATAATATGA
DNA 2: TCATATTATGCTTATTTTTTATTTTCTTTTAAAAAA
B26: CACACA_negctrl_site329 (dsDNA)
DNA 1: TTTAATTTATATAATGATATTAAGTTGGTTATTAGG
DNA 2: CCTAATAACCAACTTAATATCATTATATAAATTAAA
B27: CACACA_negctrl_site116 (dsDNA)
DNA 1: ATTGGAAAATATGTTATATATATATATATATATATG
DNA 2: CATATATATATATATATATATAACATATTTTCCAAT
B28: CACACA_negctrl_site1645 (dsDNA)
DNA 1: TATTTTAGAGAAAAAAATAAATTACAAAATGTTAGG
DNA 2: CCTAACATTTTGTAATTTATTTTTTTCTCTAAAATA
B29: CACACA_negctrl_site1620 (dsDNA)
DNA 1: ATCTAAATAATATATATATATAATATTAATAATATA
DNA 2: TATATTATTAATATTATATATATATATTATTTAGAT
B30: CACACA_negctrl_site237 (dsDNA)
DNA 1: ATTCTATTTTTTATAAAACCATGTCATCAACATAGG
DNA 2: CCTATGTTGATGACATGGTTTTATAAAAAATAGAAT
B31: CACACA_negctrl_site1407 (dsDNA)
DNA 1: CACATATACAAAAAGAAATGTTTAGTTGAAAATTAA
DNA 2: TTAATTTTCAACTAAACATTTCTTTTTGTATATGTG
B32: CACACA_negctrl_site245 (dsDNA)
DNA 1: TTTTTATTTTATAATATATTCCTTTTCCTTTCTTTC
DNA 2: GAAAGAAAGGAAAAGGAATATATTATAAAATAAAAA
B33: CACACA_negctrl_site905 (dsDNA)
DNA 1: TATAATAATAATAATAATAATAATAATAATAATAAT
DNA 2: ATTATTATTATTATTATTATTATTATTATTATTATA
B34: CACACA_negctrl_site786 (dsDNA)
DNA 1: AATAATAAATATATATATATATATATATATATATTT
DNA 2: AAATATATATATATATATATATATATATTTATTATT
B35: CACACA_negctrl_site491 (dsDNA)
DNA 1: ATTTAATATCACAATATATTTTTTACCCTTATCAGC
DNA 2: GCTGATAAGGGTAAAAAATATATTGTGATATTAAAT
B36: CACACA_negctrl_site1155 (dsDNA)
DNA 1: TAAATGTCTTCAATGAAGTGGAAATGCTGTTATATA
DNA 2: TATATAACAGCATTTCCACTTCATTGAAGACATTTA
B37: CACACA_site6208 (dsDNA)
DNA 1: ATATAAATATGACACACACACAAAAAAAATAAAGAC
DNA 2: GTCTTTATTTTTTTTGTGTGTGTGTCATATTTATAT
B38: CACACA_site117 (dsDNA)
DNA 1: ATATATATAAAACACACACACAAAAAAAATAAAGAC
DNA 2: GTCTTTATTTTTTTTGTGTGTGTGTTTTATATATAT
B39: CACACA_site8094 (dsDNA)
DNA 1: AAAAAAATTTGGCATACACACACACCCCCACCCACA
DNA 2: TGTGGGTGGGGGTGTGTGTGTATGCCAAATTTTTTT
B40: CACACA_negctrl_site515 (dsDNA)
DNA 1: GACTCATTAAGGATTATTCCTAATGATCAAAAGAAC
DNA 2: GTTCTTTTGATCATTAGGAATAATCCTTAATGAGTC
B41: CACACA_negctrl_site129 (dsDNA)
DNA 1: AAGCATTTTTTTTAAAGCCTGTTCATCATCCTTACC
DNA 2: GGTAAGGATGATGAACAGGCTTTAAAAAAAATGCTT

The target of this data set is T1, PF3D7_0420300 D1 (Plasmodium falciparum, UniProt Q8I1N6 1956-2015).
T1 sequence: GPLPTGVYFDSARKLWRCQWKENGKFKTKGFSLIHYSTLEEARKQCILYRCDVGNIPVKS
The data set can be described thus: gcPBM; about 25 ug protein; PBS, 1% milk, 0.2 mg/ml BSA, salmon testes DNA, 0.03% Triton X-100. Particulars: tags: N-terminal GST (pGEX-4T-1), kept; label: surface-attached array probe.
As for B1, the binding signal is 9.02 ln median PBM intensity, better of two orientations.
The value for B2 was 9.03 ln median PBM intensity, better of two orientations.
The value for B3 was 9.05 ln median PBM intensity, better of two orientations; that for B4 was 9.06 ln median PBM intensity, better of two orientations.
For the molecule B5, the binding signal was 9.04 ln median PBM intensity, better of two orientations.
Consider B6, for which the binding signal is 9.05 ln median PBM intensity, better of two orientations.
The value for B7 was 9.02 ln median PBM intensity, better of two orientations; that for B8 was 9.01 ln median PBM intensity, better of two orientations.
In the case of B9 it was 8.98 ln median PBM intensity, better of two orientations.
B10: the binding signal was 9.01 ln median PBM intensity, better of two orientations.
B11: the binding signal is 9.01 ln median PBM intensity, better of two orientations.
For the molecule B12, the binding signal is 9.03 ln median PBM intensity, better of two orientations.
In the case of B13 it was 9.06 ln median PBM intensity, better of two orientations; in that of B14, 8.99 ln median PBM intensity, better of two orientations; in that of B15, 9.07 ln median PBM intensity, better of two orientations.
In the case of B16 it was 9 ln median PBM intensity, better of two orientations; in that of B17, 9.07 ln median PBM intensity, better of two orientations; in that of B18, 8.99 ln median PBM intensity, better of two orientations.
As for B19, the binding signal is 9.01 ln median PBM intensity, better of two orientations.
The value for B20 was 9.07 ln median PBM intensity, better of two orientations.
Consider B21, for which the binding signal is 9.02 ln median PBM intensity, better of two orientations.
On to B22, for which the binding signal is 9.04 ln median PBM intensity, better of two orientations.
The value for B23 was 8.98 ln median PBM intensity, better of two orientations.
Take B24: the binding signal was 8.98 ln median PBM intensity, better of two orientations.
The value for B25 was 8.99 ln median PBM intensity, better of two orientations.
As to B26, the binding signal was 9 ln median PBM intensity, better of two orientations.
The value for B27 was 9.05 ln median PBM intensity, better of two orientations; that for B28 was 8.98 ln median PBM intensity, better of two orientations.
The value for B29 was 8.99 ln median PBM intensity, better of two orientations; that for B30 was 8.99 ln median PBM intensity, better of two orientations; that for B31 was 9.06 ln median PBM intensity, better of two orientations.
The value for B32 was 8.97 ln median PBM intensity, better of two orientations.
As for B33, the binding signal is 9.03 ln median PBM intensity, better of two orientations.
Take B34: the binding signal was 9 ln median PBM intensity, better of two orientations.
The value for B35 was 9.04 ln median PBM intensity, better of two orientations; that for B36 was 8.99 ln median PBM intensity, better of two orientations.
Consider B37, for which the binding signal is 10.6 ln median PBM intensity, better of two orientations.
With B38, the binding signal was 10.6 ln median PBM intensity, better of two orientations.
With B39, the binding signal was 10.6 ln median PBM intensity, better of two orientations.
The value for B40 was 9 ln median PBM intensity, better of two orientations; that for B41 was 9.02 ln median PBM intensity, better of two orientations.

Values taken from publication PMC11417369, “DNA sequence and chromatin differentiate sequence-specific transcription factor binding in the human malaria parasite Plasmodium falciparum”.
